The values below are quoted from earlier work in patent publication US20250049892A1, “SEMAGLUTIDE SOLUBLE MICRONEEDLE COMPOSITION AND PREPARATION METHOD THEREFOR” (GUANGZHOU NOVAKEN PHARM CO., LTD., priority 2022, published 2025).

For this data set the following is noted: oral administration of semaglutide (with SNAC).

In the case of Semaglutide, the bioavailability is 0.9-1.2%.
